Values quoted from earlier work, collected in paper PMC3197216.
Values belong to the substance of their own block, whether it stands above or below them.

Key:
[1] = target: GluA3 ATD (Rattus norvegicus) (UniProt P19492)
[2] = target: KA2 ATD (Rattus norvegicus) (UniProt Q63273)
[3] = target: NR2 ATD (Rattus norvegicus) (UniProt Q00960)
UniProt Q00960, sequence (Q00960 31-394): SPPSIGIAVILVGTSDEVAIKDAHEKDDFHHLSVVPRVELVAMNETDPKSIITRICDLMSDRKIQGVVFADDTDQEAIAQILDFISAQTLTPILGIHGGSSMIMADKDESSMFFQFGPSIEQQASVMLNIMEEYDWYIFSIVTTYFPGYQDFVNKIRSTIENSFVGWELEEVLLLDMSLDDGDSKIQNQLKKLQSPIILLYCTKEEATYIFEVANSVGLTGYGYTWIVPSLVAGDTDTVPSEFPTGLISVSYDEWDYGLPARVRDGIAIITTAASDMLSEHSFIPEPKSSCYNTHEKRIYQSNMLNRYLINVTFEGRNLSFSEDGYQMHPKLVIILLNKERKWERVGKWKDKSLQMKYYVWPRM

UniProt Q63273, sequence (Q63273 20-402): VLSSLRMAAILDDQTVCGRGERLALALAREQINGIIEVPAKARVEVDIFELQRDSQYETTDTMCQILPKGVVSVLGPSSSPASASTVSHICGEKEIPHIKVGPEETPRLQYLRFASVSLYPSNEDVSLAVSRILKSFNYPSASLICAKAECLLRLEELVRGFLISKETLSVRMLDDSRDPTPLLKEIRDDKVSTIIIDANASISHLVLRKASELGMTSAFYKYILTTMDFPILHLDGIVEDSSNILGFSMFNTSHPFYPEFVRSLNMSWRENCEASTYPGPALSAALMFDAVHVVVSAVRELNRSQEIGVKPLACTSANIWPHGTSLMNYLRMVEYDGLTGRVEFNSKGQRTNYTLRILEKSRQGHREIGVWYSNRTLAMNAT

Kd [1]: 1200 nM
Substance: GluA3 ATD (from UniProt P19492)

Kd [2]: 11 nM
Substance: GluR6 ATD (from UniProt P42260)

Kd [3]: 700 nM
Substance: NR1 ATD (from UniProt P35439)
